Laboratory results from patent publication US20250376490 (POSTECH RESEARCH AND BUSINESS DEVELOPMENT FOUNDATION, published 2025).

Tests used:
[1] = biological target: SARS-CoV-2 spike RBD wild type (SARS-CoV-2, UniProt P0DTC2 SEQ:1-219); assay: flow
Bovine serum albumin = Bovine serum albumin (Bos taurus, UniProt P02769 P02769:25-607); assay: flow; details: tags: Sigma-Aldrich; bead-immobilised
Sequence of Bovine serum albumin (P02769 25-607, one chain of several): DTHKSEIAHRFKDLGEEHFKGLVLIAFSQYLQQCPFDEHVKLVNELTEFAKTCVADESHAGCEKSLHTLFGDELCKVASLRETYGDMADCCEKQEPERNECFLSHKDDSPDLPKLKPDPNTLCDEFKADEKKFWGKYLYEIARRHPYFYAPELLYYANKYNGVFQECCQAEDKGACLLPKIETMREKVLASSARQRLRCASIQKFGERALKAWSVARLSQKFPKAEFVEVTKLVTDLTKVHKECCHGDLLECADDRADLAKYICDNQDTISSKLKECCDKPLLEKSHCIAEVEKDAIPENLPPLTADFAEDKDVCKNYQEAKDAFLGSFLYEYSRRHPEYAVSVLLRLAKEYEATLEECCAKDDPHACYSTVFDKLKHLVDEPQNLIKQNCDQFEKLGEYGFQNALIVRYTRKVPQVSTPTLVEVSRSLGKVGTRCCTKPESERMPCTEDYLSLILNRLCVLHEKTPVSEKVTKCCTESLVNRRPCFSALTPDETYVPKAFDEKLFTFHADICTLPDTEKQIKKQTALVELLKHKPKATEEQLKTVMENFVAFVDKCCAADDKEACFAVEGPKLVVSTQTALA

B1: CoV2-RBD-1C (printed as CoV2-RBD-QC in Table 1) (ssDNA)
DNA: CAGCACCGACCTTGTGCTTTGGGAGTGCTGGTCCAAGGGCGTTAATGGACA
binding result [1]: binds

CGCAGCACCCAAGAACAAGGACTGCTTAGGATTGCGATAGGTTCGG (ssDNA) [CoV2-6C3]
binding result [1]: binds

TCGAGTGGCTTGTTTGTAATGTAGGGTTCCGGTCGTGGGT (ssDNA) [Aptamer-1 core]
binding result [1]: binds

B2: R7-02 hybrid (LGKGDFR peptide-DNA) (ssDNA)
DNA: GGAAGAGATGGCGACACGCAATCGTGGGTTGGGGATATAATGGTAAGCTGATCCTGATGG
modifications: 5'-hexynyl clicked to C-terminal azide-lysine tagged LGKGDFR peptide
binding result (Bovine serum albumin): no binding
